Laboratory results reported in US11578136B2, “Compositions and methods for treating cancer” (INNATE PHARMA, priority 2017, dated 2023).
Residue numbers refer to the chain shown, from its start.

Experiments:
allogenic CD4 T cells = assay: Mixed lymphocytes reaction (MLR) with ATP-activated DC; format: cell-based, human; details: MoDC activated with ATP plus antibody; 5 days
Method: Briefly, human monocytes were purified from human healthy blood and differentiated into MoDC in presence of GM-CSF and IL-4 during 6 days. Then MoDC were activated in presence of ATP (Sigma, 0.25-1 mM) during 24 hours and DC activation were assessed by analyzing CD80, CD83 and HLA-DR expression by flow cytometry. In some cases, MoDC were preincubated during 1 hours in presence of CD39 inhibitor: […] (Tocris, 250 μM), CD73 inhibitor: APCP (Tocris 50 μM), anti-CD39 blocking antibody I-394 or BY40 (for BY40 see WO2009/095478), or anti-CD73 blocking antibodies. LPS (Invivogen, 10 ng/ml) was used as positive control. To assess resulting effect of ATP-mediated DC activation on CD4 T cells activation, ATP-activated DC were washed and then incubated with allogenic CD4 T cells (ratio 1 MoDC/4 T cells) for a mixed lymphocytes reaction (MLR) during 5 days. T cells activation and proliferation were analyzed through CD25 expression and Cell Trace Violet dilution by flow cytometry (FIG. 8).

[1] = target: T1, CD39 mutants transfected in Hek-293T cells (Homo sapiens, UniProt P49961, E142K/M139A/R138A); assay: Epitope mapping: binding to CD39 mutants by flow cytometry; details: mutant 19: R138A, M139A, E142K; vs wild-type CD39
T1 construct: expressed in transfected cells; host or cells: HEK-293T cells
T1 sequence (P49961 1-510 R138A/M139A/E142K): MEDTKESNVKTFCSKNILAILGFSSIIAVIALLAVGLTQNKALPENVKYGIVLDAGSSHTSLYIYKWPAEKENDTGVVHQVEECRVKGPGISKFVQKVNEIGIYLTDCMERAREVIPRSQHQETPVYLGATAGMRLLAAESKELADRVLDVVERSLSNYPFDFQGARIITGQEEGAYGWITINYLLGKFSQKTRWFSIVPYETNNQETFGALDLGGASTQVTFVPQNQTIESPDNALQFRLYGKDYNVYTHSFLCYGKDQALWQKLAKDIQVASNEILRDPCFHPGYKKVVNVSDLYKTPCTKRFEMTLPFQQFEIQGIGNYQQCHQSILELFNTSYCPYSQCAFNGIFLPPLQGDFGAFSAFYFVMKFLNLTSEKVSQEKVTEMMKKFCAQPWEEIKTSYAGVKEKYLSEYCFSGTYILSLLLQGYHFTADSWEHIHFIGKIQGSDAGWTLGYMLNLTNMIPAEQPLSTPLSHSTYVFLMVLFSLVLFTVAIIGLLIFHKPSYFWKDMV
Method: (§1) CD39 mutants were generated by PCR. The sequences amplified were run on agarose gel and purified using the Macherey Nagel PCR Clean-Up Gel Extraction kit (reference 740609). The purified PCR products generated for each mutant were then ligated into an expression vector, with the ClonTech InFusion system. The vectors containing the mutated sequences were prepared as Miniprep and sequenced. After sequencing, the vectors containing the mutated sequences were prepared as Midiprep using the Promega PureYield™ Plasmid Midiprep System. HEK293T cells were grown in DMEM medium (Invitrogen), transfected with vectors using Invitrogen's Lipofectamine 2000 and incubated at 37° C. in a CO2 incubator for 48 hours prior to testing for transgene expression. The targeted amino acid mutations in the table 1 below are shown using numbering of SEQ ID NO: 1.
(§2) In order to define the epitopes of anti-CD39 antibodies, we designed CD39 mutants defined by substitutions of amino acids exposed at the molecular surface over the surface of CD39. Mutants were transfected in Hek-293T cells, as shown in the table 1, using numbering of SEQ ID NO: 1.
(§3) Dose-ranges of I-394 (10-2.5-0.625-0.1563-0.0391-0.0098-0.0024-0.0006 μg/ml) are tested on the 20 generated mutants by flow cytometry. […] Mutant 5 contains amino acid substitutions at residues Q96, N99, E143 and R147.
(§4) Mutants were transfected in Hek-293T cells, as shown in the table 1, using numbering of SEQ ID NO: 1. Dose-ranges of antibodies I-394 were tested on the 20 mutants by flow cytometry. […] Mutant 19 includes substitutions at residues R138, M139 and E142. The core epitope of I-394 thus includes one or more (or all of) residues R138, M139 and E142.
(§5) Mutants were transfected in Hek-293T cells, as shown in the table 1, using numbering of SEQ ID NO: 1.Dose-ranges of test antibodies (10-2.5-0.625-0.1563-0.0391-0.0098-0.0024-0.0006 μg/ml) are tested on the 20 generated mutants by flow cytometry.

[2] = target: T2, CD39 mutants transfected in Hek-293T cells (Homo sapiens, UniProt P49961, E143A/N99A/Q96A/R147E); assay: as above; details: mutant 5: Q96A, N99A, E143A, R147E; vs wild-type CD39
T2 construct: expressed in transfected cells; host or cells: HEK-293T cells
T2 sequence (P49961 1-510 Q96A/N99A/E143A/R147E): T1 sequence (P49961 1-510 R138A/M139A/E142K) with Q96A, N99A, A138R, A139M, K142E, E143A, R147E
Method: as §1, §2, §3, §4, §5

- binding to cells expressing mutant 19 of CD39 [1]: complete loss of binding
- binding to cells expressing mutant 5 of CD39 [2]: strongly reduced binding
Substance: I-394: anti-CD39 antibody, VH SEQ ID NO: 6, VL SEQ ID NO: 7; human IgG1 Fc with L234A/L235E/G237A/A330S/P331S
- T cells proliferation and activation in MLR (CD25 expression, Cell Trace Violet dilution) (allogenic CD4 T cells): higher T cells proliferation and activation
